Among the data in paper PMC5083130 are stoichiometry N values, retold here.

Test [1] concerns the target NCS-Orf16 (S. carzinostaticus). Briefly: SEC. (In gel filtration, larger molecules generally elute earlier.)
In test [2] the target is SgcJ (Streptomyces globisporus). Briefly: SEC.

Regarding NCS-Orf16 (natural protein), the stoichiometry N (commonly the number of molecules, sites or subunits per partner or assembly) in test [1] was 2.

SgcJ (natural protein) displayed a stoichiometry N in test [2] of 2.
